2 molecules from article doi:10.1101/2024.09.17.612794 (bioRxiv, 2024) can be followed below.

Assay [1] addresses T1, full-length Transportin-1 (Trn1), wild type (human, UniProt Q92973 1-898).
T1 sequence (looked up): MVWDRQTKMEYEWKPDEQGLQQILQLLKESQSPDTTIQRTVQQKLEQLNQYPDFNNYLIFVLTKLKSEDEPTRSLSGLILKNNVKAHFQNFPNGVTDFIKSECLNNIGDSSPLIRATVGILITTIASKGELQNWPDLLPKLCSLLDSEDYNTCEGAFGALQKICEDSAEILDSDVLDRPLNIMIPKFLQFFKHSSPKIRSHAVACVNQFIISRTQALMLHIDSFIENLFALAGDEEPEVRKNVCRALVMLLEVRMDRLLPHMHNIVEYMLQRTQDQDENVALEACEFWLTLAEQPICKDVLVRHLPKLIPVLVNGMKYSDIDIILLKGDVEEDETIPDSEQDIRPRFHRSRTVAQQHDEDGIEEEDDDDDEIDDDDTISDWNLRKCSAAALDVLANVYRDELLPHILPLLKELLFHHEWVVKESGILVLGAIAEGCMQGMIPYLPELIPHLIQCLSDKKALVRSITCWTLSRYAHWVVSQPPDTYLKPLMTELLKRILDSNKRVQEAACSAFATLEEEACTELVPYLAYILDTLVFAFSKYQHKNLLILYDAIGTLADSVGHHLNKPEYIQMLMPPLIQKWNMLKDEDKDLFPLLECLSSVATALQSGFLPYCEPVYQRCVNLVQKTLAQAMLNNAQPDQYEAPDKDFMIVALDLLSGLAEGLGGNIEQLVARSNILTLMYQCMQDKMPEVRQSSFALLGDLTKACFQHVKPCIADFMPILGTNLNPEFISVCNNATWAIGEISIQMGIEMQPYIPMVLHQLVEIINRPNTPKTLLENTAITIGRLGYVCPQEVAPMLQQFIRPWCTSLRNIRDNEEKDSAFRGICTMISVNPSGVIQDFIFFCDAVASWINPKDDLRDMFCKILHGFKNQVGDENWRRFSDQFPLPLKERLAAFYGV
As to the kind of experiment: ITC. (In ITC the heat of successive injections is recorded.)

Assay [2] has as its target T2, Trn1Δloop (HEAT repeat 8 loop replaced with the GGSGGSG linker) (human, UniProt Q92973 1-343; Q92973 376-898).
T2 chain: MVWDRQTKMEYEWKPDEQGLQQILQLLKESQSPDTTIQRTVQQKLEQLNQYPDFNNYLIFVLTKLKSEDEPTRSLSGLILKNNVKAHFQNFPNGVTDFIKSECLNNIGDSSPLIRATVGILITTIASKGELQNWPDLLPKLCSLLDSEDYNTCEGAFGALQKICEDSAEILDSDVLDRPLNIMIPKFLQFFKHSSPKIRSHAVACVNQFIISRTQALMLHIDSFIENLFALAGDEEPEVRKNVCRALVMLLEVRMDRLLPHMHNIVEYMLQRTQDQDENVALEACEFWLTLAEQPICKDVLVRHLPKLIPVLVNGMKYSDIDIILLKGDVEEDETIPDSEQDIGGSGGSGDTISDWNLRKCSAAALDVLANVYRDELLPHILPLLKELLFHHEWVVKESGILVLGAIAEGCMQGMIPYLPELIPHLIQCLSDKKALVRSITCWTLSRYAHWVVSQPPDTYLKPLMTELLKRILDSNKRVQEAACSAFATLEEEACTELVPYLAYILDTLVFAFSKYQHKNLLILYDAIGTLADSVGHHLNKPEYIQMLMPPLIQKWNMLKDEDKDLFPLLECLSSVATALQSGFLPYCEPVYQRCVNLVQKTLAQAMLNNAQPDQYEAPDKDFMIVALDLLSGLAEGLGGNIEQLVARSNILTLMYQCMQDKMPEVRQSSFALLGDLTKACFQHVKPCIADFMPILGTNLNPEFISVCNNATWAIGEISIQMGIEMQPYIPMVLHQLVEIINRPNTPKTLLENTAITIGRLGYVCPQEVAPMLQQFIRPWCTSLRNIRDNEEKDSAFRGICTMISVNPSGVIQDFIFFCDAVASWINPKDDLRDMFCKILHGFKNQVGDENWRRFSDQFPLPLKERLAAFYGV
Put plainly: SEC-MALS. (In gel filtration, larger molecules generally elute earlier.)

In assay [3] the target is T1, full-length Transportin-1 (Trn1), wild …. Put plainly: SEC-MALS.

B1: PPARγ (DHL), residues 102-505, purified (domain or fragment, human, UniProt P37231-1 102-505, looked up)
chain: YQSAIKVEPASPPYYSEKTQLYNKPHEEPSNSLMAIECRVCGDKASGFHYGVHACEGCKGFFRRTIRLKLIYDRCDLNCRIHKKSRNKCQYCRFQKCLAVGMSHNAIRFGRMPQAEKEKLLAEISSDIDQLNPESADLRALAKHLYDSYIKSFPLTKAKARAILTGKTTDKSPFVIYDMNSLMMGEDKIKFKHITPLQEQSKEVAIRIFQGCQFRSVEAVQEITEYAKSIPGFVNLDLNDQVTLLKYGVHEIIYTMLASLMNKDGVLISEGQGFMTREFLKSLRKPFGDFMEPKFEFAVKFNALELDDSDLAIFIAVIILSGDRPGLLNVKPIEDIQDNLLQALELQLKLNHPESSQLFAKLLQKMTDLRQIVTEHVQLLQVIKKTETDMSLHPLLQEIYKDLY
For the molecule B1, in assay [1], the Kd (as a rule, the concentration at which binding is half-saturated) was found to be 200 nM. Further, the “stoichiometry N” value in assay [2] and in assay [3] was 1 molar ratio each time.

B2: PPARγ (DBD), residues 135-209, purified (domain or fragment, human, UniProt P37231-1 135-209, looked up)
chain: MAIECRVCGDKASGFHYGVHACEGCKGFFRRTIRLKLIYDRCDLNCRIHKKSRNKCQYCRFQKCLAVGMSHNAIR
Take B2: the “stoichiometry N” value in assay [2] and in assay [3] was 1 molar ratio each time.
